In a protein production outcome set (Wang et al. 2014) one finds protein production data, which are given here for 14 sequences.

This series in a line: label from the status in PepcDB records.
With “MATLDERARPWARKSRWNGYAYEFLLFGLKQAWACLFGGLMLALLVGTKLFWPEAAPIARYDFLVVAAIAIQASLLALKLERWDEALVIFMFHVVGTIMELFKTAHGSWIYPEDSVLRIGGVPLFTGFMYACVGSYIARIWRLFDITFIRYPPFWTTHILAVLIYANFFTHHYMIDIRVGLFALSVLLFGRTWFVFTPDQTARRMPMLMGAVLVSLFIWFAENLGTFAGAWIYPNQADGWQMVPFEKMGAWYLLMLISFVLVTLVHPPVHACVARIRQGIWRAA”, the protein production entry is “failed”.
Turning to “GDGVWDWDISNGSIFFSSRCRQLLGLTAPEAIAGFQLWQTGIHPDERPTVQAELAGYLRQPEGSFVTEHRFRKGEEWIWLLGRGMVVSLDIQGRPLRMIGTYSDITERKEAEAELQLLNSHLEERVAARTAELKKAMQQISIAEKQAALARMVAGMAHELNTPIGNILLCSSQIQADVAAIAKADTDRLLSRKGLQSFLQKAAESCELLQRNSELAGDLIGRFKQIAVDQLDQP”, the protein production entry is recorded as “failed”.
Then “MSIYKDINIASAKPSLKERKNIKHYALDHLNIDEKNNAPLFKTLLEDAMRVSSKEILLIVGGSSFYLKSILEGLSRMPKLSGEEVVKIEREIATLSNPYIFLKSIDPNMAFKIHPNDTYRTHKALEIFYATCTPPSEYFKANPKKPFEHAISLFALSIEKSALHNNIKRRTKNMLHSGLVEEIKALYTQYPKDSQPFKAIGVKESVLFLEKRLTLKELEEAITSNTMKLAKRQNTFNKTQFNNLYVGSAEEVRHAILKHSKSGIKG”, with “failed”.
Then “MTNAGTTDLSWLPSDADEQLALGFKIVTNAYKTRVTSQEAEIRSLKGQLTEKQEQLSSIQKKYSNLEVQLIESTQRGNQLADENKQLITTIKKLNRDIDRLENLKKAVLNSIQEEHDVEDAHKYYSADDLLQTTAPRTMLEMNGNEDSCQSIINKIVNSDTHNIINGSFNSPYIGNVPLGEKNTDGRAFFRNARSRLSYEQFNQFLSNIKKLNNHQQKREETLKKAQAIFGEANLDLYEEFKVLISKHS”, with “failed”; and “MKRAAAKHLIERYYHQLTEGCGNEACTNEFCASCPTFLRMDNNAAAIKALELYKINAKLCDPHP”, with “not failed”; and “CRLLWDYVYQLLSDSRYENFIRWEDKESKIFRIVDPNGLARLWGNHKNRTNMTYEKMSRALRHYYKLNIIRKEPGQRLLFRFMKTPDEIMSGRTDRLEHLESQEL”, with “not failed”.
Then “MLELFLKSFLTLFVVMDPVGLVPVFVALAGDRPHRTQVLIARKAVLVAGGLLTFFYFFGRELLGHLGISLEALRIAGGVLLFRIATEMVFAHHERETEEERDEALSRADISVFPLAIPLIAGPGALASVLVLGAEAKGVPYGFAVVLFTAYLVLFLAYLFLRGATAVRRALGRTGVNVVTRVLGLLLAALAVQYVADGVRGLL”, with “failed”; and “MVFFHKKIILNFIYSLMVAFLSHGVLLKADGMAKKQTLLVGERLVWDKLTLLGFLEKNHIPQKLYYNLSSQDKELSAEIQSNVTYYTLRDANNTLIQALIPISQDLQIHIYKKGEDYFLDFIPIIFTRKEKTLLLSLQTSPYQDIIKATNDPLLANQLMNAYKKSVPFKRLVKNDKIAIVYTRDYRVGQAFGQPTIKMAMVSSRSNQYYLFSHSNGHYYDSKAQEVAGFLLETPVKYTRISSPFSYGRFHPVLKVRRPHYGVDYAAKHGSLIHSASDGRVGFMGVKAGYGKVVEIHLNELRLVYAHMSAFANGLKKGSFVKKGQIIGRVGSTGLSTGPHLHFGVYKNSRPINPLGYIRTAKSKLHGKQREVFLEKAQRSKQKLEELLKTHSFEKNSFYLLEGF”, with “failed”; and “VDCIGCRKCEEVCLSDALDIMGKDVSVSELMDIIMQDYDFYISSGGGVTIGGGEMSLQTDFAVALLRECKKMMINTAVETQATTNVANYEKLAQVVDQFLIDIKHIDTTQHKALFGIGNENVRRNLERLMDLGANVVIRMPLVRGYNDSYDAITGAINYAMALSKRGNLQRIDILPYHQFGRN”, with “failed”.
For “MFLGAAMAQVSLCMIVRDEAELLPRCLASVKDQVDELIVLDTGSRDRTPAIATEAGAKLLHTDWADDFSAARNQAIAAATGDWILVLDADEELILEAWTELRSQLDQPEALAFTVLREETQAGQVPYSRLSRLFRNRPDIRFQRPYHELVDDSLLALQQQEPNWRITAWPTPVIRHYGYGRDRLQQRGTAERMRQSLETWLADHPEDAYLCSKLGGLLVQEGDLKAAQRWLKQGLKQGRPEPAVRYELLYHLALLERRQGDLDAAIDRYQAALQEPVDAIHKLGAWVNLSHLYRDRGQLGLAYDAARQAVAAAPQATVALTALGLAARAIGNYPEAIAAYQQALQLDPNDPSLYQNLGAVLFQVGQLEASYAAFRQAIAGYEQQGSPEAQRLELRLQAMGIRL”, the protein production entry is recorded as “failed”.
Then “MSAALPSIQLPVDYNNLFNEITDFLVTFKQDTLSSDATRNENEDENLDAENIEQHLLEKGPKYMAMLQKVANRELNSVIIDLDDILQYQNEKFLQGTQADDLVSAIQQNANHFTELFCRAIDNNMPLPTKEIDYKDDVLDVILNQRRLRNERMLSDRTNEIRSENLMDTTMDPPSSMNDALREVVEDETELFPPNLTRRYFLYFKPLSQNCARRYRKKAISSKPLSVRQIKGDFLGQLITVRGIITRVSDVKPAVEVIAYTCDQCGYEVFQEVNSRTFTPLSECTSEECSQNQTKGQLFMSTRASKFSAFQECKIQELSQQVPVGHIPRSLNIHVNGTLVRSLSPGDIVDVTGIFLPAPYTGFKALKAGLLTETYLEAQFVRQHKKKFASFSLTSDVEERVMELITSGDVYNRLAKSIAPEIYGNLDVKKALLLLLVGGVDKRVGDGMKIRGDINVCLMGDPGVAKSQLLKAICKISPRGVYTTGKGSSGVGLTAAVMKDPVTDEMILEGGALVLADNGICCIDEFDKMDESDRTAIHEVMEQQTISISKAVINTNPGARTSILAAANPLYGRINPRLSPLDNINLPAALLSRFDILFLMLDIPSRDDDEKLAEHVTYVHMHNKQPDLDFTPVEPSKMREYIAYAKTKRPVMSEAVNDYVVQAYIRLRQDSKREMDSKFSFGQATPRTLLGIIRLSQALAKLRLADMVDIDDVEEALRLVRVSKESLYQETNKSKEDESPTTKIFTIIKKMLQETGKNTLSYENIVKTVRLRGFTMLQLSNCIQEYSYLNVWHLINEGNTLKFVDDGTMDTDQEDSLVSTPKLAPQTTASANVSAQDSDIDLQDA”, with “failed”; and “MPPPAMLAFDDGLARKSNDNEWQGFRVFPGENTNPNPNINFLVKKAILQNEKSITPLFSRSSARDDSFRIVLPPALPPPRDSTVPLPMLPEPMRVRKKLSHQESVIFMSKSRFAEKILYKEEDFKCNAFCLSLPGFGKNKLIRSSSKRQNSMEKKMIRASSFTGSTVSVRASLEKFECGSWASTTALIQDNGRLFFDFPVEMTKCNSRGGNGGRDVQEPVTSGFLFDRETETLALRSVLKTRSTRDHRRSAESSPQRRVRFSTSSSSASVSCPTSPRTCITPRLRKARDDFNTFLTAQNA”, with “failed”; and “MSTARPRIITSKAPLLPQQTTPEQRYWRQYTSAQLVKEHNSVTHISFNPQHPHDFAVTSSTRVQIFSSRTRQVIKTFSRFKDVVYSASFRSDGKLLCAGDATGLVSVYDSYNPRTILLSINASTHPTHVTKFHTQDNKILATASDDRVTRLWDISNAYEPQLELTGATDYVRTLSFIPAAPHLVATGSYDGLIRLYDTRSSGSTPIYSLNHDQPVENVIAVSPTQIVSCGGNNFKVWDLTSNKKLYERGNFNKAVTCLDYVENFDSPMQSALIASSLDGHVKVFDPLDNFQVKFGWKFSGPVLSCAVSPSTAQGNRHLVAGLSSGLLAIRTKKKEKRSSDKENAPASFNKNAKSNNFQRMMRGSEYQGDQEHIIHNDKVRSQRRMRAFERNINQFKWSEALDNAFVPGMAKELTLTVLQELRKRGKVRVALYGRDESTLEPLLNWCLKGIEDVRSASIVADWVAVVLELYGNTLESSPVLQELMIDLKTKVRHEIHKSKEAQRIEGMLQLLTS”, with “failed”.
For the sequence “MEKKIVYFNKPGRENTEETLRLAVERAKELGIKHLVVASSYGDTAMKALEMAEGLEVVVVTYHTGFVREGENTMPPEVEEELRKRGAKIVRQSHILSGLERSISRKLGGVSRTEAIAEALRSLFGHGLKVCVEITIMAADSGAIPIEEVVAVGGRSRGADTAVVIRPAHMNNFFDAEIKEIICMPRNKR”, the protein production entry is reported as “not failed”.
